T1: QKI5 (UniProt Q96PU8 1-341)
T1 sequence: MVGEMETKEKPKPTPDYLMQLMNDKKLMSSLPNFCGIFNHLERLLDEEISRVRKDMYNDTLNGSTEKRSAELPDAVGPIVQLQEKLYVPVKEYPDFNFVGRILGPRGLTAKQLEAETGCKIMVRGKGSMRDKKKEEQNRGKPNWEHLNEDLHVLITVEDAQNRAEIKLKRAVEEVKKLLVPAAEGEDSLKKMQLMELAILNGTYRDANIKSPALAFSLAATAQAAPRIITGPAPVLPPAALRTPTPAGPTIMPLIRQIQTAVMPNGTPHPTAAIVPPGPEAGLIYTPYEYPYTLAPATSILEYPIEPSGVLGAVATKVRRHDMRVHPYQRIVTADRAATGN


Target: T1, QKI5
Assay: EMSA; 50 fmol biotin-labelled probe; LightShift Chemiluminescent EMSA Kit per manufacturer; 50 fmol biotin-labelled probe, 4 ul QKI5; room temperature 20 min; native 8% PAGE; buffer, salt and pH not stated
Conditions: protein: commercial; chain copies: 2; label: 5'-biotin (cold version unlabelled); blunt

| Binder | binding result |
| --- | --- |
| wild-type CXCL2 promoter probe (dsDNA) DNA 1: GAAAGGATGGGGGATTGCAACACTGTTAAC DNA 2: GTTAACAGTGTTGCAATCCCCCATCCTTTC | binds |
| mutant CXCL2 promoter probe (dsDNA) DNA 1: GAAAGGATGGAAAGCCATAACACTGTTAAC DNA 2: GTTAACAGTGTTATGGCTTTCCATCCTTTC | no binding |
